The target in data set [1] is T1, DUE-B (Homo sapiens, UniProt Q8TEA8 SEQ:1-209).
T1 sequence: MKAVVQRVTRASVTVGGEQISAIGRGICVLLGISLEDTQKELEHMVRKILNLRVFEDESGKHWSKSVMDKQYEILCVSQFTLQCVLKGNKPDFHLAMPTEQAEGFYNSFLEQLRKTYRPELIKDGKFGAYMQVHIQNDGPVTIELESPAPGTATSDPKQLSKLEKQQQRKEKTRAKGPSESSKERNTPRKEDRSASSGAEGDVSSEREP
As to the kind of experiment: FP; saturable polarization; 2 nM oligo; 100 mM Tris pH 7.5 (printed mN), 800 mM NaCl, 10 mM EDTA; reversed by poly dI-dC; 16-epiestriol (E2850) stimulates. The note with it: tags: N-terminal 6His and V5, baculovirus expressed; label: FITC at 3' end of both strands via C6 spacer. Here is the method: A mastermix is prepared consisting of 1× reaction buffer, 2 nM labeled oligo and 0.125 or 0.250 ug DUE-B per 100 ul of mastermix. Compounds (in this case steroids) are added to the bottom of a 96 well plate. 100 ul of mastermix is added to each well and allowed to equilibrate for 30 sec. Fluorescence polarization is then measured.
In FIG. 23A, the effect of increasing concentrations of DUE-B on the polarization of dsDNA was assessed. As expected, polarization of the dsDNA becomes saturated as the DUE-B protein concentration increases. Note that at 0.125 and 0.250 μg of DUE-B a reasonable shift in polarization of dsDNA is seen. Using these set conditions (0.250 ug DUE-B), the effect of adding a non-specific DNA inhibitor (pdldC) to the reaction (FIG. 23B) was tested. […] It is observed that the polarization was stable for at least 2 hours, making this assay very feasible for high throughput screening.

In data set [2] the target is T1, DUE-B. The data set is described as follows: EMSA; strongly retarded complex without poly dI-dC; 30 C 30 min; reduced by poly dI-dC. Particulars: tags: 6His, baculovirus/Sf9 expressed, Ni-NTA; label: 32P (alpha-32P-dCTP by PCR). Here is the method: An electrophoretic mobility shift assay (EMSA) was used to test whether the baculovirus expressed DUE-B protein could bind to DNA in vitro. When added to a radiolabeled c-myc DUE probe in the absence of nonspecific competitor (poly dI-dC), DUE-B produced a strongly retarded protein-DNA complex band (FIG. 14, lanes 1-4). […] When HeLa cell cytoplasmic extract was added to the c-myc DUE probe in the absence of poly dI-dC an intense band was observed that was not affected by the addition of DUE-B (lanes 13-16). With the addition of the nonspecific competitor poly dI-dC, however, a novel band appeared that was dependent on the addition of DUE-B (asterisks, lanes 17-24). […] Similar to the results obtained when cytosol was added to the c-myc DUE probe, when nuclear extract from HeLa cells was added to the c-myc DUE probe in the absence of poly dI-dC an intense band was observed that was not affected by the addition of DUE-B (lanes 25-28). In the presence of competitor for nonspecific binding, however, a novel band appeared that was dependent on the addition of DUE-B (brackets, lanes 32 and 36). […] In FIG. 14, a 123 bp fragment of the c-myc replication origin containing the DUE/ARS region was labeled with alpha-³²P-dCTP by PCR. 25 fmol were mixed with recombinant DUE-B purified by Ni-NTA affinity chromatography from SF9 insect cells. […]
A general note: A gel shift assay detects complexes by their altered migration in electrophoresis.

Consider two molecules from US20040219554, “Dna binding protein” (published 2004).

B1: DUE 30-mer probe (dsDNA)
DNA 1: GGAATATACATTATATATTAAATATAGATC
DNA 2: GATCTATATTTAATATATAATGTATATTCC
Consider B1, for which the binding result with DUE-B [1] was “binds”.

B2: c-myc DUE/ARS 123 bp probe (dsDNA)
DNA 1: GAAGGAATTCATGAGAAGAATGTTTTTTGTTTTTCATGCCGTGGAATAACACAAAATAAAAAATCCCGAGGGAATATACATTATATATTAAATATAGATCATTTCAGGGAGCTCGAGAAACAA
DNA 2: TTGTTTCTCGAGCTCCCTGAAATGATCTATATTTAATATATAATGTATATTCCCTCGGGATTTTTTATTTTGTGTTATTCCACGGCATGAAAAACAAAAAACATTCTTCTCATGAATTCCTTC
B2: the binding result with DUE-B [2] is “binds”.
